B1: T-lymphocyte surface antigen Ly-9 (Homo sapiens), Q9HBG7 (parent)
chain: MVAPKSHTDDWAPGPFSSKPQRSQLQIFSSVLQTSLLFLLMGLRASGKDSAPTVVSGILGGSVTLPLNISVDTEIENVIWIGPKNALAFARPKENVTIMVKSYLGRLDITKWSYSLCISNLTLNDAGSYKAQINQRNFEVTTEEEFTLFVYEQLQEPQVTMKSVKVSENFSCNITLMCSVKGAEKSVLYSWTPREPHASESNGGSILTVSRTPCDPDLPYICTAQNPVSQRSSLPVHVGQFCTDPGASRGGTTGETVVGVLGEPVTLPLALPACRDTEKVVWLFNTSIISKEREEAATADPLIKSRDPYKNRVWVSSQDCSLKISQLKIEDAGPYHAYVCSEASSVTSMTHVTLLIYRRLRKPKITWSLRHSEDGICRISLTCSVEDGGNTVMYTWTPLQKEAVVSQGESHLNVSWRSSENHPNLTCTASNPVSRSSHQFLSENICSGPERNTKLWIGLFLMVCLLCVGIFSWCIWKRKGRCSVPAFCSSQAEAPADTPEPTAGHTLYSVLSQGYEKLDTPLRPARQQPTPTSDSSSDSNLTTEEDEDRPEVHKPISGRYEVFDQVTQEGAGHDPAPEGQADYDPVTPYVTEVESVVGENTMYAQVFNLQGKTPVSQKEESSATIYCSIRKPQVVPPPQQNDLEIPESPTYENFT
partner: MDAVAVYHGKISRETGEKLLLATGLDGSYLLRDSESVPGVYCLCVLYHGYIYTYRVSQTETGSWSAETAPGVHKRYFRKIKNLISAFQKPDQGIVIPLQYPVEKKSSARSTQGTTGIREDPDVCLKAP
B2: T-lymphocyte surface antigen Ly-9 (Homo sapiens), Q9HBG7 (parent)
chain: B1 chain
partner: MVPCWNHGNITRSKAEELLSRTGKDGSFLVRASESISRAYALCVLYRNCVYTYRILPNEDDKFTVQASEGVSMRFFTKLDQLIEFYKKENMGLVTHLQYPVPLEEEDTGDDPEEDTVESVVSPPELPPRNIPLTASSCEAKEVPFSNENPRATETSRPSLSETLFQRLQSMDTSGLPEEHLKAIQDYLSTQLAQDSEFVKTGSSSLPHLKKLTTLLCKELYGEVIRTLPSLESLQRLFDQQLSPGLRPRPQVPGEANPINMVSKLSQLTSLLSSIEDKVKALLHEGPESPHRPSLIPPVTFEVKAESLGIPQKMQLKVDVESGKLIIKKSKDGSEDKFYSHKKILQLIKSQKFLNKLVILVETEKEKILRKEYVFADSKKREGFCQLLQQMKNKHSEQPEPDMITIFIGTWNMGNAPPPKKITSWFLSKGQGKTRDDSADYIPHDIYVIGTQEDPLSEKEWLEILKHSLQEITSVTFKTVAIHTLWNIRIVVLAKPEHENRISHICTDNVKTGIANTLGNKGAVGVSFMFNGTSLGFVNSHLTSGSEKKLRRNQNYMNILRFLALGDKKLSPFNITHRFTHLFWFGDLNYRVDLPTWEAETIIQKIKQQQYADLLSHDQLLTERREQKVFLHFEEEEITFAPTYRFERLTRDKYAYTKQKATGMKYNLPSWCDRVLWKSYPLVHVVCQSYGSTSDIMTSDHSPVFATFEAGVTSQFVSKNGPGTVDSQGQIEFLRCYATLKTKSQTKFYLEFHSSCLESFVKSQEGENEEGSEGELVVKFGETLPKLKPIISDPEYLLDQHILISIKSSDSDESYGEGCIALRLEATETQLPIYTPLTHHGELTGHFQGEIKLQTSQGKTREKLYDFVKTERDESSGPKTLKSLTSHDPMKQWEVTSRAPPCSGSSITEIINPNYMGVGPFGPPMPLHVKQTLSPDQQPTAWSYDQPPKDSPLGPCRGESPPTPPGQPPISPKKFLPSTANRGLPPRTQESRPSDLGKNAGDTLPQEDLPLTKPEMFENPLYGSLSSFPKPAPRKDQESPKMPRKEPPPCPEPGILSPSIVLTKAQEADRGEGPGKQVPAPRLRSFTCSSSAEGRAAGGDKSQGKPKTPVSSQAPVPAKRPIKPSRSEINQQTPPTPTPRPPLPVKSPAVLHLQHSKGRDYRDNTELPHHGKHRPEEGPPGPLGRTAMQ

Variants of: B1
Details: with sh21a_human SH2D1A

Row | Variant | effect of a mutation on the interaction
1 | M602V | decreasing interaction

Variants of: B2
Details: with ship1_human INPP5D

Row | Variant | effect of a mutation on the interaction
2 | M602V | decreasing interaction
